Publication PMC3835166 (Journal of molecular biology, 2012)
Blank lines part the entries; values can stand above or below the binder they belong to.

B2: raver1 RRM1-3 domains (residues 39-321) (domain or fragment, human, UniProt Q8IY67 39-321, looked up)
chain: LDPEEIRKRLEHTERQFRNRRKILIRGLPGDVTNQEVHDLLSDYELKYCFVDKYKGTAFVTLLNGEQAEAAINAFHQSRLRERELSVQLQPTDALLCVANLPPSLTQQQFEELVRPFGSLERCFLVYSERTGQSKGYGFAEYMKKDSAARAKSDLLGKPLGPRTLYVHWTDAGQLTPALLHSRCLCVDRLPPGFNDVDALCRALSAVHSPTFCQLACGQDGQLKGFAVLEYETAEMAEEAQQQADGLSLGGSHLRVSFCAPGPPGRSMLAALIAAQATALNRG

Columns and labels:
[1] = biological target: B2; assay: native gel or EMSA
[2] = biological target: T1, full-length human metavinculin (human, UniProt P18206 1-1134); assay: native gel or EMSA
T1 sequence (looked up): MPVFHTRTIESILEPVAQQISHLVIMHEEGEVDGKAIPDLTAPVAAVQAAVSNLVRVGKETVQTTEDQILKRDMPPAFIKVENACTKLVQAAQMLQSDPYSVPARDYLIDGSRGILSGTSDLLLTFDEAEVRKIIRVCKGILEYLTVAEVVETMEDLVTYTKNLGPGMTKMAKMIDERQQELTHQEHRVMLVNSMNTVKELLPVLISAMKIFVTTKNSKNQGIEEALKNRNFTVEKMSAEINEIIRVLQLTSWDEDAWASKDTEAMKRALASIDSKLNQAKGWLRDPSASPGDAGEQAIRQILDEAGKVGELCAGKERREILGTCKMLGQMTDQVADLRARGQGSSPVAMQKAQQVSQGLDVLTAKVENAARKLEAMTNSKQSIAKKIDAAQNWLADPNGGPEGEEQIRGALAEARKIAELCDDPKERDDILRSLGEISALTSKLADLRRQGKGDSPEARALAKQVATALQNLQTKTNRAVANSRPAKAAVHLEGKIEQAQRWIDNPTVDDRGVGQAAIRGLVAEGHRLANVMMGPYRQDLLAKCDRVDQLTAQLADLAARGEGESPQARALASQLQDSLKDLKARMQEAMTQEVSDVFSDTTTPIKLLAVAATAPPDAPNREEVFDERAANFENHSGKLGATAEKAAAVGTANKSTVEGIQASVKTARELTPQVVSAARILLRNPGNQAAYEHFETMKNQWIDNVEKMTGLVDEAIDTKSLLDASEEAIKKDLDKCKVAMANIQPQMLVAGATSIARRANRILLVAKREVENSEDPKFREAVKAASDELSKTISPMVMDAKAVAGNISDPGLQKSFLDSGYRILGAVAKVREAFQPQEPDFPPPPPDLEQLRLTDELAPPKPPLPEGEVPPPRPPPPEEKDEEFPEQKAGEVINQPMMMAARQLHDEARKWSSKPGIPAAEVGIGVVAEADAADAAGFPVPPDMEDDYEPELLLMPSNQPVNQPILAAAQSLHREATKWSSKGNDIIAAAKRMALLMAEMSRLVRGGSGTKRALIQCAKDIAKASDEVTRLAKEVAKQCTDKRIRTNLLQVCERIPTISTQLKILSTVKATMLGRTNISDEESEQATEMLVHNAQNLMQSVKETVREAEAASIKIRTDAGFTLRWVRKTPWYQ

raver1 RRM2-RRM3 = biological target: T2, raver1 RRM2-RRM3 (UniProt Q8IY67 129-321); assay: EMSA
T2 sequence: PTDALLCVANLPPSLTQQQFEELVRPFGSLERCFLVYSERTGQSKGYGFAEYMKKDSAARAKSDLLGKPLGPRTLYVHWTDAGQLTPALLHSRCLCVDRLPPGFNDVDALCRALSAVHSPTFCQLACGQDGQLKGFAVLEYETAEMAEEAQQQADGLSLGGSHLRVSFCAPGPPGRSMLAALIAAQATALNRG

raver1 RRM1-3 = biological target: T3, raver1 RRM1-3 (UniProt Q8IY67 39-321); assay: EMSA
T3 sequence: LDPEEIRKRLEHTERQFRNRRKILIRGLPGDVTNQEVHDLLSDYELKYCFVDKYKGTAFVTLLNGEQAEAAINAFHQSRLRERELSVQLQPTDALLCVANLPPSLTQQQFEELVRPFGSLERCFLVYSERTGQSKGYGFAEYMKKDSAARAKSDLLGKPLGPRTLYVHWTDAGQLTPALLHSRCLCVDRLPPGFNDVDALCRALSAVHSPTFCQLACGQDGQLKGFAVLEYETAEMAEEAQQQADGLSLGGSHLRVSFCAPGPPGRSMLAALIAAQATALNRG

[3] = biological target: metavinculin tail MVt;raver1 RRM1-3 (Homo sapiens;Homo sapiens?, UniProt P18206;Q8IY67 856-1134;39-321, |); assay: EMSA

binding result [1]: binds
B1: MVt (metavinculin tail domain, residues 856-1134) (domain or fragment, human, UniProt P18206 856-1134, looked up)
chain: DELAPPKPPLPEGEVPPPRPPPPEEKDEEFPEQKAGEVINQPMMMAARQLHDEARKWSSKPGIPAAEVGIGVVAEADAADAAGFPVPPDMEDDYEPELLLMPSNQPVNQPILAAAQSLHREATKWSSKGNDIIAAAKRMALLMAEMSRLVRGGSGTKRALIQCAKDIAKASDEVTRLAKEVAKQCTDKRIRTNLLQVCERIPTISTQLKILSTVKATMLGRTNISDEESEQATEMLVHNAQNLMQSVKETVREAEAASIKIRTDAGFTLRWVRKTPWYQ

Binder: B2
binding result [2]: binds

Binder: UCAUGCAGUCUG (ssRNA) [vinculin RNA 3089-3100]
binding result (raver1 RRM2-RRM3): no binding
binding result (raver1 RRM1-3): binds
binding result [3]: binds
